Source: US20140255415A1 (Novartis, published 2014)
Substitutions are numbered along the chain they refer to.

Columns and labels:
[1] = biological target: human LINGO-1 expressed on CHO-K1 cells (CHO-K1-hLINGO-1) (human) (UniProt Q96FE5); assay: apparent KD, FACS saturation binding on CHO-K1-hLINGO-1 cells, IgG4 pre-incubated in FACS buffer + 50% human serum
[2] = biological target: human LINGO-1 expressed on CHO-K1 cells (CHO-K1-hLINGO-1) (human) (UniProt Q96FE5); assay: apparent KD, FACS saturation binding on CHO-K1-hLINGO-1 cells, IgG4, with 50% human cerebro-spinal fluid
[3] = biological target: human LINGO-1 expressed on CHO-K1 cells (CHO-K1-hLINGO-1) (human) (UniProt Q96FE5); assay: ratio of apparent KDs, FACS saturation binding on CHO-K1-hLINGO-1 cells, IgG4, without against with 50% human CSF
[4] = biological target: T1, human LINGO-2 expressed on CHO-K1 cells (CHO-K1-hLINGO-2) (human, UniProt Q7L985 26-606); assay: apparent KD, FACS saturation binding on CHO-K1-hLINGO-2 cells, IgG4 format
T1 construct: range 26-606; not shown: 2 amino acid residue linker
T1 sequence (looked up): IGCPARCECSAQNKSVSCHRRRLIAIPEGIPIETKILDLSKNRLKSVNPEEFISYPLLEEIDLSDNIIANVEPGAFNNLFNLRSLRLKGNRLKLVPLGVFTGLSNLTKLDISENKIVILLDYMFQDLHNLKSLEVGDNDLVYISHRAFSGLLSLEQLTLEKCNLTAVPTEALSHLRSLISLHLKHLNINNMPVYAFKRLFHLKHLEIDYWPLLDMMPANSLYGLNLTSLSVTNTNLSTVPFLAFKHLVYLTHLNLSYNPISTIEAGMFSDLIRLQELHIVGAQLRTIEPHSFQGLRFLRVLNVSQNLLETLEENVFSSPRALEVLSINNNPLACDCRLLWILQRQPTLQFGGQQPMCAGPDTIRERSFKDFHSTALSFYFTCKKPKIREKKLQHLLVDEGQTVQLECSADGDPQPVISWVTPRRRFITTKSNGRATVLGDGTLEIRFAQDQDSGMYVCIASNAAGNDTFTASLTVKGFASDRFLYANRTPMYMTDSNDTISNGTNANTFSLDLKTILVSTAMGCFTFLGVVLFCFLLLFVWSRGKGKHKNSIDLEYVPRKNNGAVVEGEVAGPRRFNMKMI

[5] = biological target: human LINGO-1 expressed on CHO-K1 cells (CHO-K1-hLINGO-1) (human) (UniProt Q96FE5); assay: FACS saturation binding on CHO-K1-hLINGO-1 cells, IgG4, with 50% human CSF against control
[6] = biological target: human LINGO-1 expressed on CHO-K1 cells (CHO-K1-hLINGO-1) (human) (UniProt Q96FE5); assay: apparent KD, FACS saturation binding on CHO-K1-hLINGO-1 cells, IgG4 pre-incubated in FACS buffer + 2.6% BSA
[7] = biological target: human LINGO-1 expressed on CHO-K1 cells (CHO-K1-hLINGO-1) (human) (UniProt Q96FE5); assay: apparent KD, FACS saturation binding on CHO-K1-hLINGO-1 cells, IgG4, without 50% human cerebro-spinal fluid (control)
[8] = biological target: T2, cynomolgus monkey LINGO-1 expressed on CHO-K1 cells (CHO-K1-cmLINGO-1) (cynomolgus monkey, UniProt Q9N008 34-614); assay: apparent KD, FACS saturation binding on CHO-K1-cmLINGO-1 cells, IgG4 format
T2 construct: range 34-614; also called Cynomolgus LINGO-1; not shown: 2 amino acid residue linker
T2 sequence (looked up): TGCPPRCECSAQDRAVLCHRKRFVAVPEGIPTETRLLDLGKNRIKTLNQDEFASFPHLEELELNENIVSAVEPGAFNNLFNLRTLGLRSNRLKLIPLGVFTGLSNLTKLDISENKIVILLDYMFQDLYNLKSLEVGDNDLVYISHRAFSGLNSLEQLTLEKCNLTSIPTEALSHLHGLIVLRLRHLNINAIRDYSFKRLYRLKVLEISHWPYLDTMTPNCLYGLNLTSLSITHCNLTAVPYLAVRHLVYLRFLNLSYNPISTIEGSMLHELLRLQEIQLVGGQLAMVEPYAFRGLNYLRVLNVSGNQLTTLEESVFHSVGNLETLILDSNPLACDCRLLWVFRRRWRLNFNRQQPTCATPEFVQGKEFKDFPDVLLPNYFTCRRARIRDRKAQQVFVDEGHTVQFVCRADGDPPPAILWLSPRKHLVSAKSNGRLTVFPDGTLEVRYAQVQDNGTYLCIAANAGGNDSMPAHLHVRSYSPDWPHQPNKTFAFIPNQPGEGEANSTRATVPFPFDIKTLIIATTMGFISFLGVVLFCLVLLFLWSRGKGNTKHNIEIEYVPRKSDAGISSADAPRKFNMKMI
Method: (§1) Cell based affinity of anti-LINGO-1 specific antibodies is determined by FACS saturation binding experiments. The determination of the apparent KD values is carried out identical to the procedure described above using anti-LINGO-1 Fab antibodies.
(§2) In detail, CHO-K1-hLINGO-1, CHO-K1-cmLINGO-1 or CHO-K1-rLINGO-1 are detached from culture flasks by versene, washed with FACS buffer and resuspended in FACS buffer. Purified anti-LINGO-1 IgG4s are serially diluted in FACS buffer and spread into round bottom 96-well microtiter plates (NUNC™, Wiesbaden, Germany). For each concentration, duplicate wells are incubated with 1.25×10⁴ cells for 30-60 min on ice in a total volume of 100 μl. […] Using this assay the following apparent KD values can be determined (Table 3).

[9] = biological target: human LINGO-1 expressed on CHO-K1 cells (CHO-K1-hLINGO-1) (human) (UniProt Q96FE5); assay: apparent KD, FACS saturation binding on CHO-K1-hLINGO-1 cells, IgG4 pre-incubated in FACS buffer
[10] = biological target: human LINGO-1 expressed on CHO-K1 cells (CHO-K1-hLINGO-1) (human) (UniProt Q96FE5); assay: apparent KD, FACS saturation binding on CHO-K1-hLINGO-1 cells, IgG4 format
[11] = biological target: T3, rat LINGO-1 expressed on CHO-K1 cells (CHO-K1-rLINGO-1) (rat, UniProt A0A8I5ZPI2 34-614); assay: apparent KD, FACS saturation binding on CHO-K1-rLINGO-1 cells, IgG4 format
T3 construct: range 34-614; not shown: 2 amino acid residue linker
T3 sequence: T2 sequence (looked up) with S261G, M286V, V315A, R386H, P494S
Method: as §1, §2

Kd [1]: 0.27 nM
Kd [2]: 1.57 nM
App. KD ratio w/o CSF:w/ CSF [3]: 0.27
Kd [4]: 25.9 nM
reduction in affinity [5]: 73%
Kd [6]: 0.19 nM
Kd [7]: 0.43 nM
Kd [8]: 0.62 nM
Kd [9]: 0.28 nM
Kd [10]: 0.29 nM
Kd [11]: 0.98 nM
B1: anti-LINGO-1 IgG4 antibody 4784 (antibody, V domains shown)
VH: QVQLKESGPALVKPTQTLTLTCTFSGFSLSSSGVGVGWIRQPPGKALEWLAHIGSDDDKYYSTSLKTRLTISKDTSKNQVVLTMTNMDPVDTATYYCARNQQYGDGYPGYFDYWGQGTLVTVSS
VL: DIELTQPPSVSVAPGQTARISCSGDNIGNYYVYWYQQKPGQAPVLVIYEDTNRPSGIPERFSGSNSGNTATLTISGTQAEDEADYYCQSYDNLHEQVFGGGTKLTVLG
